Data set [1] deals with LANA peptide (Kaposi's Sarcoma Herpesvirus). The data set is described as follows: fluorescence polarization. The settings on record: FP: 20 mM HEPES pH 7.5, 150 mM NaCl, 0.5 mM EDTA, 1 mM DTT, 0.05% Triton X-100, 20 C, 50 nM peptide, EMSA: 15 mM HEPES pH 7.5, 150 mM NaCl.
Data set [2] has as its target Homo sapiens nucleosome core particle (human) (UniProt P68431). The data set is described as follows: fluorescence polarisation. (In fluorescence polarisation assays a small probe gives low polarisation when free and higher when bound to something large.)

The Kd is the equilibrium constant for the complex coming apart. A higher Kd goes with a looser complex. On to H. sapiens NCP, for which the Kd in data set [1] came out at 2380 nM. The substance “Kaposi's Sarcoma Herpesvirus Latency Associated Nuclear Antigen (LANA) peptide, aa. 4-23” yielded a Kd in data set [2] of 2380 nM.

For the origin of these results see paper PMC10450195.
